Reference: patent US20150337019A1 (MANUKAMED HOLDINGS LIMITED PARTNERSHIP, published 2015)
Like-named read-outs stand apart in the source and are kept apart here.

What was measured:
[1] = biological target: T1, Cathepsin B from bovine spleen (bovine, UniProt P07688 80-332); assay: cell-based or functional assay
[2] = biological target: T1, Cathepsin B from bovine spleen; assay: cell-based or functional assay; remark: listed apart in the source

Binder | Cathepsin B inhibition test, 2 mM peptide [1] | Cathepsin B inhibition test, 2 mM peptide [2]
H-YINR-OH [H-YINR-OH] | 142 | –
Ac-HNIR-OH [Ac-HNIR-OH] | 172 | –
Ac-Met-Asn-Arg-OH [Ac-MNR-OH] | – | 101
Ac-Leu-Gln-Lys-OH [Ac-LQK-OH] | – | 102
Ac-Thr-Asn-Arg-OH [Ac-TNR-OH] | – | 96.5
H-Thr-Asp-Lys-OH [H-TDK-OH] | – | 103
Ac-Thr-Asp-Lys-OH [Ac-TDK-OH] | – | 101
Ac-Phe-Asp-Arg-OH [Ac-FDR-OH] | 85.6 | –
Ac-Phe-Thr-Lys-OH [Ac-FTK-OH] | 149 | –
H-Met-Asp-Lys-OH [H-MDK-OH] | – | 104
H-Thr-Asn-Arg-OH [H-TNR-OH] | – | 103
Ac-Val-Asn-Arg-OH [Ac-VNR-OH] | – | 99.8
Ac-IFVTMLR-OH [Ac-IFVTMLR-OH] | 88.3 | –
H-Met-His-Arg-OH [H-MHR-OH] | – | 96.8
Ac-Met-Asp-Arg-OH [Ac-MDR-OH] | – | 107
Ac-Met-His-Arg-OH [Ac-MHR-OH] | – | 101
Ac-Ile-Asp-Arg-OH [Ac-IDR-OH] | – | 93.5
H-Val-Asn-Arg-OH [H-VNR-OH] | – | 97.8
H-Met-Gln-Lys-OH [H-MQK-OH] | 127 | –
H-Ile-Asp-Arg-OH [H-IDR-OH] | – | 98
H-Met-Asp-Arg-OH [H-MDR-OH] | – | 102
H-Leu-Gln-Lys-OH [H-LQK-OH] | – | 102
H-Phe-Asp-Arg-OH [H-FDR-OH] | 175 | –
H-HNIR-OH [H-HNIR-OH] | 152 | –
H-Phe-Thr-Lys-OH [H-FTK-OH] | 148 | –
Ac-Met-Asp-Lys-OH [Ac-MDK-OH] | – | 110
H-IFVTMLR-OH [H-IFVTMLR-OH] | 80.5 | –
Ac-YINR-OH [Ac-YINR-OH] | 93.1 | –

The remaining lines, values ahead:

Cathepsin B inhibition test, 2 mM peptide [1] | Cathepsin B inhibition test, 2 mM peptide [2] | Binder
44.8 | – | Ac-Phe-Asp-Arg-OH (also: MGO-modified, site not given here) [MGO-modified Ac-FDR-OH]
79.2 | – | H-YINR-OH (also: MGO-modified, site not given here) [MGO-modified H-YINR-OH]
– | 68.5 | Ac-Val-Asn-Arg-OH (also: MGO-modified, site not given here) [MGO-modified Ac-VNR-OH]
76.6 | – | H-Phe-Thr-Lys-OH (also: MGO-modified, site not given here) [MGO-modified H-FTK-OH]
– | 95.3 | H-Leu-Gln-Lys-OH (also: MGO-modified, site not given here) [MGO-modified H-LQK-OH]
– | 82.6 | H-Val-Asn-Arg-OH (also: MGO-modified, site not given here) [MGO-modified H-VNR-OH]
105 | – | Ac-Phe-Thr-Lys-OH (also: MGO-modified, site not given here) [MGO-modified Ac-FTK-OH]
– | 90.1 | Ac-Met-His-Arg-OH (also: MGO-modified, site not given here) [MGO-modified Ac-MHR-OH]
92.6 | – | Ac-IFVTMLR-OH (also: MGO-modified, site not given here) [MGO-modified Ac-IFVTMLR-OH]
– | 74.5 | H-Met-Asp-Arg-OH (also: MGO-modified, site not given here) [MGO-modified H-MDR-OH]
107 | – | Ac-HNIR-OH (also: MGO-modified, site not given here) [MGO-modified Ac-HNIR-OH]
– | 87.5 | H-Thr-Asp-Lys-OH (also: MGO-modified, site not given here) [MGO-modified H-TDK-OH]
– | 92.8 | Ac-Thr-Asp-Lys-OH (also: MGO-modified, site not given here) [MGO-modified Ac-TDK-OH]
99 | – | Ac-YINR-OH (also: MGO-modified, site not given here) [MGO-modified Ac-YINR-OH]
– | 91.9 | H-Thr-Asn-Arg-OH (also: MGO-modified, site not given here) [MGO-modified H-TNR-OH]
– | 99.4 | Ac-Met-Asp-Lys-OH (also: MGO-modified, site not given here) [MGO-modified Ac-MDK-OH]
103 | – | H-HNIR-OH (also: MGO-modified, site not given here) [MGO-modified H-HNIR-OH]
– | 85.6 | H-Ile-Asp-Arg-OH (also: MGO-modified, site not given here) [MGO-modified H-IDR-OH]
– | 90.2 | Ac-Leu-Gln-Lys-OH (also: MGO-modified, site not given here) [MGO-modified Ac-LQK-OH]
– | 86.9 | Ac-Met-Asn-Arg-OH (also: MGO-modified, site not given here) [MGO-modified Ac-MNR-OH]
– | 88.6 | Ac-Met-Asp-Arg-OH (also: MGO-modified, site not given here) [MGO-modified Ac-MDR-OH]
– | 78.6 | H-Met-Asn-Arg-OH (also: MGO-modified, site not given here) [MGO-modified H-MNR-OH]
78.7 | – | H-IFVTMLR-OH (also: MGO-modified, site not given here) [MGO-modified H-IFVTMLR-OH]
71.2 | – | H-Phe-Asp-Arg-OH (also: MGO-modified, site not given here) [MGO-modified H-FDR-OH]
– | 70.6 | H-Met-Asp-Lys-OH (also: MGO-modified, site not given here) [MGO-modified H-MDK-OH]
– | 81.8 | Ac-Ile-Asp-Arg-OH (also: MGO-modified, site not given here) [MGO-modified Ac-IDR-OH]
– | 80.7 | H-Met-His-Arg-OH (also: MGO-modified, site not given here) [MGO-modified H-MHR-OH]
– | 91.7 | Ac-Thr-Asn-Arg-OH (also: MGO-modified, site not given here) [MGO-modified Ac-TNR-OH]
